The results in this text go back to PMC9129083.

In this data set the target is Pst_A23 (Puccinia striiformis f. sp. tritici, UniProt A0A0L0VHF6 =M+36-181, internal_change). In words: EMSA. (A gel shift assay detects complexes by their altered migration in electrophoresis.)
As for AGGAGGCAAGGACCCACCUAGGCA (ssRNA) [M1-m-RNA], the binding result is reported as “no binding”.
In the case of UUUCCCUAAAGUUUCUUACAAUGAUCUGGUUGAAGCAACAAAG (ssRNA) [TaXa21-RNA], the binding result was “binds”.
For the molecule ACUUCUUCUUGUUGUUGCUCCUGCUGC (ssRNA) [TaWRKY53-RNA], the binding result was “binds”.
As to GAAGAAGAAGAGAAGACCUGAAGA (ssRNA) [M1-RNA], the binding result is recorded as “binds”.
For the molecule AACUUCUUCUUUACUUCCUUUCCU (ssRNA) [M2-RNA], the binding result was “binds”.
